Source: the DeepSol protein solubility set

Experiment: soluble on expression in E. coli; label from the status in PepcDB or PDB records

Soluble on expression in E. coli, soluble:
MSLENGYTPKLMYERLSKRLGSLFTFFSEPAFENLLPPPPPEQYRRPLTLVVTLDDFLIHSNWDTQHGWRTGKRPGLDYFLGYLSQYYEIVVFSSNLQMYSDKTVNKLDPYHAYISYALFREACRYKDGKLIKDLSLLNRDLGKTVMIDVDEDSAALQPENSIIVKKWEGQPDEYLISLIPFLEYLATQPVKDVRPILNSYKDKSNEGHHHHHH, MSLENISETLRTLMNRKNLNHRYEALMTAVYQDPDVRQFLAAHQNELSSDALERSAAKLYEFCEEKRKIARHEPTQAPGYQPTLVMSNHLIDIAYQPTPQMQEQQAAHALQQRVRSISMPKNIQTADLKTYDQDGDRATALMAALDFIDAYTQAPKRFHRGLYLYGSFGVGKTYLLGGMANALAAKGFNTTLIHFPSFAVEMKRSISNNTSADKVDAIKRAPILMIDDIGADASSTWIRDDVLGVILEYRMQEELPTCFSSNFSMQELQDGYLTLSQKGDEEPVKAQRIMQRVRYLASEIEMVGRNRRLNPDAEGHHHHHH, MSLENKHVTIYDIAERLNLATSTISRALKDHHTISDKTIKKVKKTAEEMGFVPNTLAAGLRGNKTRTIGVLIPTVTQPFLSSLISGIEITAQKSDYTVIIMQSHDSYEEEVNMAKSLYSNRVSGVICSLAMETRDTAHFHQFSNNNIPLVFVDRVPKDYNTFRVVIDNYTAGYKATKHLIEQGCIRIAHLTAGSELGNLYNERKRGYIEALKDHNIEVEEELIINLNSVTYEDGVKASNALFDLKPIPDGLFAPGDILAVSAVQTAKKRGTKVPEEFKVIGFNNDPISQIIDPNLSTITHPAEKMGKAAAEIIIKNLKSSKNDDAKEITFLNTEVLARESSSKEGHHHHHH, MSLENNNEIFKEKSRENFNKTADIYDESHDGKFVAPMYDEIIKRILRANPKTVLDVGCGTGNVLKILAKDENLSLYGLDLSEKMIEIAKKNLKGRAELKLGDSENMPWKSNSFDVIVCNASFHHYPNPKKVLIEMKRILKKDGTLIIGDPTAPVIYRQILNLYCKISNKGDYKLYSKKEIENIMKECGFEPFNFIHINHGSFAVNAKIREGHHHHHH, MSLENPYQLVEDIEGIGFKRADNLAEQIGIAADSPRRIRAAILHQIFQHAVQTGDTYVPAETLLQQTIRILETSRPIEIQPDQVATVIIQLVEEGKIQQEETNLYENSLYFSEWGIGNSIQRLLSRKKEIHYPEKEVQKNIRRIEKIFGIQYGPSQEQAIAEAIRSPLFILTGGPGTGKTTVINGIVNLFAELNGLELDPSKYTQEIFPILLAAPTGRAAKRMNETTGLPASTIHRLLGLNGREKTPSVSTKELEGGLLIVDEMSMVDTWLANTLFKAIPTNMQVILVGDKDQLPSVGPGQVLHDLLEIEQIPKMELNQIYRQGDGSSIIPLAHEIKEGRLPKDFTKNQKDRSYFRSDAYQIEPLISKIVEKAKNKGFRAQDIQVLAPMYRGPAGIDALNKMMQEIFNPGKPGKKEVHWNDTVYRIGDKVLQLVNTPELNVFNGDMGEITGIILAKDSEDKVDELVIQFDANEVTYKRNEWNKITLSYCCSIHKSQGSEFKMVILPMVHQYQRMLQRNLLYTAVTRSKELLILLGEEQAYVTCVANESASRMTTLKSRIMDNDKMNEGHHHHHH, MSLENYQFPKDFLWGGAIAANQAEGAFKVDGKGISLADLHKYHKGKTNDEISEEQHKGVSLADIKASMEDKVNYYPKRHGIDFYHTYPEDLALLAEMGFKTFRTSLDWTRIFPTGEETEPNEAGLKYYDQLIDKIIELGMEPIITILHYETPVEIVLNNGGWHNRKVIDLFEKYGKTVLDRYNKKVKYWIVINQINLIQFEPFNSTAIPYDAVDDYLSATYQAVHNQFVASAKIYEYGKALNPDLMIGTMLADCTAYPFSCDPDDIVLAMKRNRMEYFFADVQFQGEYPQYALNYFDENNIHIEITEDDKAVLQKNTMDYLALSYYYSQMVDSKKNDLDPASITPNPHLKANPWGWAVDPKGLYNALSQYWDRYHKPIIIAENGFGMYDKLENGEIHDDYRIDYLSAHLKEMKRAMYDGVEIIAYCAWGPIDIVSCSSAQMEKRYGFIYVDLDNEGNGTGKRIKKDSFSWYKKVIESNGEDLEKGIITITTDPNSSSVDKLAAALEHHHHHH, MSLERSLSMELVRVTEAAALASARWMGRGKKDEADEAATSAMRDVFDTVPMKGTVVIGEGEMDEAPMLYIGEKLGNGYGPRVDVAVDPLEGTNILASGGWNALTVIAVADHGTLLNAPDMYMQKIAVGPEAVGCIDIEAPVIDNLKAVAKAKNKDVEDVVATILNRERHAKIISELREAGARIKLINDGDVAGAINTAFDHTGVDILFGSGGAPEGVLSAVALKALGGEIIGKLLPQSEEEITRCHKMGLDLSKVLRMEDLVKGDDAIFAATGVTDGELLKGVQFKGSVGTTESLVIRAKSGTVRFVDGRHSLKKKPNLVIRPEGGSHHHHHH, MSLESAVKAESAGKSVAASLKARLEKTYSAQDLKVLSVSETPVKGIYEVVVSGRQIIYTDAEGGYMFVGELINIDTRKNLTEERAADLNKIDFASLPLDKAIKEVRGNGKLKVAVFSDPDCPFCKRLEHEFEKMTDVTVYSFMMPIAGLHPDAARKAQILWCQPDRAKAWTDWMRKGKFPVGGSICDNPVAETTSLGEQFGFNGTPTLVFPNGRTQSGYSPMPQLEEIIRKNQQEGHHHHHH, MSLESSQSLELLKNKIEQYALNELSNYTEGKIQVTADNIDPRLNLKVCNDNKLEVFNPYQTPMLNTSTMGIKCLEENNHWTLYIPVKITIFKSVLVAKRALLKGTKISNSDIYQTELDVQKLKQGYFTDSKELIGLVCKHDITPNSPLNPFNIELAKLVHKGEQVSIIAAHDNLTVSMDGVAMDEGALGDSVKVKNLSSKRIIEAQVTGKKTVKVTFEGHHHHHH, MSLETVRLQRELIEAQRQTYNEMRTYFTVNGVEGVIGAVFDEGVITLRVPSEVLFAPGAVELAPGADRVLATLKDLFIRRREQNINIKGFTDDVQPSANARFKDNWEVSALRSVNVLRYFLGAGIEPARLTATGLGELDPLFPNTSDENRARNRRVEFVLERRVVREGHHHHHH, MSLEYENEIMDLINDYDMLRVLKHFTVAHVDYAKNITRYTEIPQIRVRAYLERLKEMGLLDYYTNTSIKRTEAKLKKSAEVHKHHTYYQINKKAEAVLKEITPKLYVKVLGKEKLELLCSRKVRKTSPDRCTGLQAMGLIDKCFDLTELGREVFEAALRMQAIRCQDEGHHHHHH, MSLFIDAHNHLDFFEEQEKLNKALDIIKNDNIITLGCSMDTKSYKFTKSLALKNKNIIPCFGIHPSRAHENFKNLECFDEYIRESKIIGEIGLDYVWVKEKEKYPHMKRVFTYFLEEAKKYNKITNIHTKGAESEIYNYIKKYELKTPIIHWYSGDKDTLKKLLDYGCYFTISVDIGYSKLSKEIVQLLPIDKILTETDGPTSLEWVNGDYGYPNVIKNVVKEISKIKNIQEEEVKGVIENNFKTLIRKEGITLEGHHHHHH, MSLFPAELMVVRKAQDGTIRPLMIAPDHVDIAEKVIEIYRSSAGRTRKEISKDIVTIEYGIKNPKIVRGLALIMDRMSTFRNRSRVDSKQLRGFLFQMGPAVSPEERQEKIALAAEHFSVSPQDIEEAIYGDMDSENVLDQCPSITPEHLNRRYNLEQLTTLMYRSKFIEVSGINNWYRFISLIKRQGLVFEAQGNPLMSVRIDGPNSVFNNMERYGSSMARVVERLTAFPGWKLHAEVEIKDRVYSVDLDSSISYYLPETDIEEEEAIPDPVVIGTRVFFPTRIINVHGQDVYVDIVYHMSPEAIKRRDEMIRSSGIKWITAVVGECKKFQGVLCFRNRVDWDAIIAKASEEYPATTDALREEIDRLYPNTEAILDLLDSRSIPLSHLEKIGYRIKWNGILPEIVRSTEGHHHHHH

Soluble on expression in E. coli, not soluble:
MSLEMKTYIIEKLRETEAIYYIEILLAVESGSRAWGFASPDSDYDIRFIYRHSKDWYLTPWDKDETITFMTEDDLDGSGWDLNKTFHLLLKSNAALLSWFYSPIVYIENKSFTKLFKPLVDQCFSPIAVSFHYLSMSKKYLESCRNDEVKLKSYFYCLRTALSGKWITEKKTVPPVLFSDLLVLADSTIRTKIENLIALKATKGESYFHPNDWELFEFMERQISENEEKAKSLSGSKTDKAQMEKVFREIISEGHHHHHH, MSLENWRFIEANSDYMVSDHGRILSFKGKSKLIISSSITAKGYEYVAIRQKGIYVGYSVHRLVATAFIPNPKRLPQVNHLDGNKLNNHVANLEWCDAYDNVMHAIRTGLRPSSPALSPVPCATTDEAGNILQAYPSMNALVKGEQMNPKQRNWLVLHLLHPERLKQSAMKKKSRAERSGSEECFLIAPEIPVLTVKADSIGEFEAGNPLGIGKSSNSVGEFEAGNPLGIGKSSNSVEEFEAGNPLGIGKSSNSVGEFKAGNVCVQPVSFSFVSSPFPLISLFAPIHHSVTQHYYRRLSPEESAIFGFNTYILPRERGQRKEFLQEGHHHHHH, MSLEPVQDDSVSGNFYISGKYMPSASHFGVFSAKEEKNPTVALYGLKQDWNGVSASSHADADFNNKGYSFKYENNPFLGFAGAIGYSMGGPRIEFEVSYETFDVKNQGGNYKNDAHRYCALDRKASSTNATASHYVLLKNEGLLDISLMLNACYDVVSEGIPFSPYICAGVGTDLISMFEAINPKISYQGKLGLSYSINPEASVFVGGHFHKVAGNEFRDISTLKAFATPSSAATPDLATVTLSVCHFGVELGGRFNFEGHHHHHH, MSLEYIIKNGIVYDPLNGINGEKMDICVKDGKIVESVSDNAKVIDASGCVVMPGGIDSHSHVAGAKVNVGRIFRPEDSKREIYAKKGLRTGTGFSVPSTYKTGYQYSEMGYTTVIEAAMPPLIARHTHEEFMETPQIDKAAMPLFGNNWMVLEYLKEGDIKACAAFVAWLLKAVKGFAIKIVNPGGTEAWGWGKNVHSLDDPVPYFDITPREIVRGLAEVNELLGLPHSIHVHPNNLGHPGNWETTLETMKCVEGVEAKPRVGERETSYYNTHCQFHSYGGTSWKDFESKAIEIAEYVNKSKHVVIDVGQVTLDETTTMTADGPMEYDLHMTNGLKWANCDVELETGSGVVPFIYSPKGPVYAVQWAIGLELFLNTNTDKVLLTTDHPNAGPFTRYPRVIAWLMSKKYRDEWLYNKVHKWAQQRSHVADADKEYDLYEIAKITRANQAKVLGLSETKGHLGVGAEADIAIYAIDPEEKDGKKIEKAFRYAKYVLKGGEVVVKDGNVVKEVFGDTIYVDVQVGEDLMNEVLKDVGEKFRRYYSVNLENYPVSDEYANSWRVIKIDATDINEGHHHHHH, MSLFEQLDELAAQGKPAALLTIVRKDGSAPRDVGDKMIVTADEEYGTIGGGTVEHLAVQDARSVLSGADDPGIRTYELERGGNTGMVCGGEMDVFIDHVRGQAQLYIAGGGHISVELAPLAERLGYAVTVVDDREAYADPTQFPDETDVIHGEYGEALGDLPMGTETAVAVATRSGTFDQAAVAAALDGEAGYVGLVASETKANHVLDSLAESGYARRDLSRVQTPVGLDLGGSGPAAVALSVLAEVTMDRHDATGARATRLNLDDLVVVRGGGDLGSGVVYRLQQAGFPVIVTEVDQPTVVRRAVAFGAALYEDEVEVEGVTGRAAADIDEALELLADDVVPVLVDPEATVADDLDAAVLVDAIMAKGAFDTGTRREDADVVVGMGPGFEAGEDVDAVVETDRGHELGRVFYDGTASEYDGEPGERRGYTHERVLRAPTDGEWTPTVAIGDSVTAGDVVGTVGDRPVETEIDGLVRGLVHGGLSVSEGTKLGDVDPRGESVDPTKISDKALCLGGGVLEAVLRLRLEHHHHHH, MSLFTCEDPAVWKAVHNKYWTVVEAKSAGKRKTSGKLLQLDKWFQEDLPAAITARPERFLTHAELVKIMEWKLTKGKFRPRLQQLIGSNNEEAVQSSSSKAFSLLPDVQAAIKELCKLKGVGSATASAVLVAGAPDKVAFMADEAVESIAELRPVEYTDKHYALYLQKMLWKTSELNKVDAQQDWTPHRVEQCLWTWTVANQIQPSLLQGVSLKDATNQKPEKRKTADEKPSKRKKTE
